Assay results published in patent publication US20210269492A1.

Target: Piromyces ScaA fragment (Piromyces)
Assay: SPR equilibrium analysis

Kd	Substance
700 nM	P. finnis single dockerin domain
2000 nM	W28F dockerin mutant
